# Data from patent publication US20110257105A1 (CARA THERAPEUTICS, published 2011).
# Square brackets hold non-standard residues; d marks the D form. Ends that are not written are not given here. dAgb = N=C(N)NCC[C@@H](N)C(=O)O; dNle = CCCC[C@@H](N)C(=O)O
# B1: Compound (50): 1N,4N-bis-[D-Phe-D-Phe-D-Leu-D-Dap(amidino)]-4-amino-4-carboxylic piperidine (peptide)
# peptide: [dF][dF][dL][dDap(amidino)]-{4‑amino‑4‑carboxylic piperidine}
# modifications: also: two identical chains joined through C-termini to N1 and 4-amino group of piperidine scaffold
# B2: Compound (3): D-Phe-D-Phe-D-Nle-D-Arg-D-Pro-OH (peptide)
# peptide: [dF][dF][dNle][dR][dP]-OH
# modifications: N-terminus assumed
# SMILES: CCCC[C@@H](NC(=O)[C@@H](Cc1ccccc1)NC(=O)[C@H](N)Cc1ccccc1)C(=O)N[C@H](CCCNC(=N)N)C(=O)N1CCC[C@@H]1C(=O)O
# B3: Compound (49): 1N,4N-bis-[D-Phe-D-Phe-D-Leu-(iPr)D-Orn]-4-amino-4-carboxylic-piperidine (peptide)
# peptide: [dF][dF][dL][dOrn(iPr)]-{4‑amino‑4‑carboxylic piperidine}
# modifications: also: two identical chains joined through C-termini to N1 and 4-amino group of piperidine scaffold
# B4: Compound (52): D-Phe-D-Phe-D-Leu-(D-Lys-GlyLactam)2-D-Leu-D-Phe-D-Phe (peptide)
# peptide: [dF][dF][dL][dK]G
# modifications: not fully specified (bridges); printed as D-Phe-D-Phe-D-Leu-(D-Lys-GlyLactam)2-D-Leu-D-Phe-D-Phe; also: two chains joined through (D-Lys-Gly lactam)2 linker
# B5: Compound (51): 1N,4N-bis-(D-Phe-D-Phe-D-Leu-D-Nar)-4-amino-4-carboxylic piperidine (peptide)
# peptide: [dF][dF][dL][dAgb]-{4‑amino‑4‑carboxylic piperidine}
# modifications: also: two identical chains joined through C-termini to N1 and 4-amino group of piperidine scaffold
# Experiments:
# [1] = molecular target: mouse kappa opioid receptor (mouse) (UniProt P33534); test: cell-based or functional assay
# [2] = molecular target: mouse kappa opioid receptor (mouse, UniProt P33534 1-380); test: cell-based or functional assay
# Sequence of mouse kappa opioid receptor (P33534 whole entry): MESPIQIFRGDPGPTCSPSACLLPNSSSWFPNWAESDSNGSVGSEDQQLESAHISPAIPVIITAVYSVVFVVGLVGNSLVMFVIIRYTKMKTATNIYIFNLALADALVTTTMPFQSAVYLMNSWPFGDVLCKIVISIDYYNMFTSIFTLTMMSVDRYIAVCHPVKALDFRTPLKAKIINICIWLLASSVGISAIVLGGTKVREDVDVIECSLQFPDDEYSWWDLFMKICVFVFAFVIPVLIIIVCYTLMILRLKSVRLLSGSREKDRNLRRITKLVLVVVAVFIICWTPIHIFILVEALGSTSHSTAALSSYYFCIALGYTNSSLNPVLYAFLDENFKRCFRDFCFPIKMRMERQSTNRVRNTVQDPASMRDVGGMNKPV
# Sequence of mouse kappa opioid receptor (mouse) (P33534 whole entry): as above
Molecule,"EC50 (nM), cAMP inhibition in R1.G1 cells [1] [nM]","Efficacy(%), cAMP inhibition in R1.G1 cells [1] [%]","EC50 (nM), cAMP inhibition in R1.G1 cells [2] [nM]","Efficacy(%), cAMP inhibition in R1.G1 cells [2] [%]"
Compound (39): D-Phe-D-Phe-D-Leu-D-Orn-[eLys(D-Orn-D-Leu-H)]-OH (peptide),67.3,35,,
B1,,,56.7,77
B2,,,9.05,88
B3,,,1.83,50
B4,13.8,76,,
B5,,,95.8,60
